Test results reported in the supplement of paper PMC9112550, “Optimization of the antimicrobial peptide Bac7 by deep mutational scanning” (BMC Biology, 2022).

Tested on: Escherichia coli TOP10
Test: shrunken log2 fold change of peptide-encoding DNA abundance (4.5 h post-induction vs induction); higher = less antimicrobial activity (less host growth inhibition)
Settings: time post-induction: 4.5 h; library: site-saturation at positions 5, 18, 19, 20
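Further: peptides expressed intracellularly from a pBAD plasmid library in pooled LB shake-flask culture, induced with 0.3% L-arabinose, DNA abundance read by NGS, three biological replicates, DESeq2 with apeglm shrinkage.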

| Sequence | shrunken log2 fold change |
| --- | --- |
| RRIRQRPPRLPRPRPRPCMSPRP | -0.234 |
| RRIRARPPRLPRPRPRPQQTPRP | 0.141 |
| RRIRMRPPRLPRPRPRPCFAPRP | 0.431 |
| RRIRVRPPRLPRPRPRPQDMPRP | -0.736 |
| RRIRKRPPRLPRPRPRPDFSPRP | 0.0114 |
| RRIRQRPPRLPRPRPRPSAIPRP | -0.399 |
| RRIRNRPPRLPRPRPRPQVIPRP | -0.000921 |
| RRIRNRPPRLPRPRPRPPMIPRP | 0.102 |
| RRIRHRPPRLPRPRPRPCNGPRP | -0.00865 |
| RRIRNRPPRLPRPRPRPIWRPRP | 0.00377 |
| RRIRWRPPRLPRPRPRPAESPRP | 0.0626 |
| RRIRGRPPRLPRPRPRPYEVPRP | 0.0996 |
| RRIRVRPPRLPRPRPRPIIVPRP | 0.0713 |
| RRIRIRPPRLPRPRPRPPHYPRP | -0.707 |
| RRIRPRPPRLPRPRPRPIRKPRP | 0.0224 |
| RRIRYRPPRLPRPRPRPCHNPRP | -1.52 |
| RRIRNRPPRLPRPRPRPCSAPRP | -0.292 |
| RRIRDRPPRLPRPRPRPWTEPRP | 0.0384 |
| RRIRARPPRLPRPRPRPQNVPRP | -0.035 |
| RRIRVRPPRLPRPRPRPVHFPRP | 0.13 |
| RRIRIRPPRLPRPRPRPVPFPRP | -0.264 |
| RRIRLRPPRLPRPRPRPSAKPRP | -0.0639 |

| Sequence | shrunken log2 fold change |
| --- | --- |
| RRIRFRPPRLPRPRPRPPGGPRP | 0.782 |
| RRIRRRPPRLPRPRPRPSEFPRP | 0.00596 |
| RRIRGRPPRLPRPRPRPGEKPRP | 1.4 |
| RRIRTRPPRLPRPRPRPYAMPRP | -0.462 |
| RRIRCRPPRLPRPRPRPWTVPRP | -0.145 |
| RRIRERPPRLPRPRPRPNPTPRP | 0.00617 |
| RRIRHRPPRLPRPRPRPTTKPRP | 0.00227 |
| RRIRDRPPRLPRPRPRPVTEPRP | 0.0911 |
| RRIRTRPPRLPRPRPRPNSKPRP | -0.848 |
| RRIRNRPPRLPRPRPRPNVKPRP | -0.324 |
| RRIRHRPPRLPRPRPRPPIFPRP | -0.163 |
| RRIRDRPPRLPRPRPRPCTMPRP | -0.0909 |
| RRIRIRPPRLPRPRPRPIDGPRP | -0.248 |
| RRIRYRPPRLPRPRPRPVLWPRP | 0.0894 |
| RRIRRRPPRLPRPRPRPFFFPRP | 0.504 |
| RRIRERPPRLPRPRPRPSWTPRP | -0.833 |
| RRIRWRPPRLPRPRPRPRHAPRP | 0.0251 |
| RRIRRRPPRLPRPRPRPYAKPRP | 0.106 |
| RRIRKRPPRLPRPRPRPRCAPRP | 0.568 |
| RRIRHRPPRLPRPRPRPTINPRP | -0.459 |
| RRIRTRPPRLPRPRPRPRRTPRP | 0.338 |
| RRIRFRPPRLPRPRPRPTDTPRP | -0.263 |

| Sequence | shrunken log2 fold change |
| --- | --- |
| RRIRHRPPRLPRPRPRPDIGPRP | 0.0697 |
| RRIRYRPPRLPRPRPRPLPNPRP | -0.296 |
| RRIRLRPPRLPRPRPRPFEMPRP | -0.00193 |
| RRIRSRPPRLPRPRPRPVMLPRP | -0.112 |
| RRIRIRPPRLPRPRPRPGCNPRP | -0.247 |
| RRIRYRPPRLPRPRPRPFQIPRP | -0.0359 |
| RRIRKRPPRLPRPRPRPNLNPRP | -0.356 |
| RRIRNRPPRLPRPRPRPIQHPRP | -0.0743 |
| RRIRSRPPRLPRPRPRPVPLPRP | -0.0843 |
| RRIRPRPPRLPRPRPRPSLCPRP | -0.0173 |
| RRIRMRPPRLPRPRPRPHFGPRP | 0.0712 |
| RRIRSRPPRLPRPRPRPDVNPRP | 0.0672 |
| RRIRYRPPRLPRPRPRPAHTPRP | -0.113 |
| RRIRLRPPRLPRPRPRPEKCPRP | -0.0157 |
| RRIRARPPRLPRPRPRPYRQPRP | -0.0187 |
| RRIRQRPPRLPRPRPRPETRPRP | -0.0113 |
| RRIRSRPPRLPRPRPRPHKGPRP | -0.22 |
| RRIRTRPPRLPRPRPRPQQIPRP | -0.0971 |
| RRIRHRPPRLPRPRPRPYGMPRP | -0.0262 |
| RRIRPRPPRLPRPRPRPYKFPRP | -0.178 |
| RRIRQRPPRLPRPRPRPCNNPRP | -0.255 |
| RRIRTRPPRLPRPRPRPSPMPRP | -0.163 |

| Sequence | shrunken log2 fold change |
| --- | --- |
| RRIRERPPRLPRPRPRPQMGPRP | -0.115 |
| RRIRVRPPRLPRPRPRPIDVPRP | -0.0749 |
| RRIRERPPRLPRPRPRPFPFPRP | -0.629 |
| RRIRDRPPRLPRPRPRPSMQPRP | -0.157 |
| RRIRGRPPRLPRPRPRPQHAPRP | 0.797 |
| RRIRTRPPRLPRPRPRPRNEPRP | -0.0624 |
| RRIRFRPPRLPRPRPRPWINPRP | -0.0461 |
| RRIRARPPRLPRPRPRPNYIPRP | -0.414 |
| RRIRTRPPRLPRPRPRPADCPRP | -0.082 |
| RRIRCRPPRLPRPRPRPTVVPRP | -0.127 |
| RRIRLRPPRLPRPRPRPYNNPRP | -1.03 |
| RRIRGRPPRLPRPRPRPSFNPRP | 0.131 |
| RRIRRRPPRLPRPRPRPYKVPRP | -0.193 |
| RRIRCRPPRLPRPRPRPVTDPRP | 0.133 |
| RRIRKRPPRLPRPRPRPPSVPRP | 0.282 |
| RRIRCRPPRLPRPRPRPNGPPRP | -0.00954 |
| RRIRTRPPRLPRPRPRPKDPPRP | 0.0667 |
| RRIRYRPPRLPRPRPRPDYDPRP | -0.476 |
| RRIRRRPPRLPRPRPRPTFNPRP | 0.077 |
| RRIRVRPPRLPRPRPRPENRPRP | -0.221 |
| RRIRMRPPRLPRPRPRPYRNPRP | -0.18 |
| RRIRCRPPRLPRPRPRPMWKPRP | -0.0547 |

| Sequence | shrunken log2 fold change |
| --- | --- |
| RRIRQRPPRLPRPRPRPWSQPRP | 0.0535 |
| RRIRLRPPRLPRPRPRPQNCPRP | 0.0117 |
| RRIRPRPPRLPRPRPRPFHPPRP | -0.255 |
| RRIRGRPPRLPRPRPRPLDCPRP | 0.141 |
| RRIRMRPPRLPRPRPRPCYQPRP | 2.31 |
| RRIRFRPPRLPRPRPRPYYIPRP | -0.794 |
| RRIRQRPPRLPRPRPRPVVDPRP | -0.355 |
| RRIRGRPPRLPRPRPRPHLSPRP | 0.283 |
| RRIRFRPPRLPRPRPRPPSAPRP | 0.703 |
| RRIRPRPPRLPRPRPRPGYDPRP | -0.0887 |
| RRIRPRPPRLPRPRPRPPGAPRP | 0.806 |
| RRIRWRPPRLPRPRPRPLVLPRP | 0.0697 |
| RRIRKRPPRLPRPRPRPHESPRP | 0.23 |
| RRIRERPPRLPRPRPRPGRGPRP | 0.436 |
| RRIRYRPPRLPRPRPRPLLCPRP | -0.287 |
| RRIRERPPRLPRPRPRPYMWPRP | -0.452 |
| RRIRNRPPRLPRPRPRPLCYPRP | -0.781 |
| RRIRRRPPRLPRPRPRPKDQPRP | 0.26 |
| RRIRNRPPRLPRPRPRPYWRPRP | -0.312 |
| RRIRERPPRLPRPRPRPMPFPRP | 0.00529 |
| RRIRDRPPRLPRPRPRPAYHPRP | -0.263 |
